The results in this text go back to patent publication US20150203573A1 (MEDICAL AND BIOLOGICAL LABORATORIES, published 2015).

The target of assay [1] is AP-MK, recombinant protein having alkaline phosphatase (AP) fused to the N-terminal of aa23-121 of MK (human) (UniProt P21741). Put plainly: AP-MK binding inhibition assay on TNB1 cells; antibody 10 ug/mL.
Target sequence in this assay (P21741 23-143, form in doubt): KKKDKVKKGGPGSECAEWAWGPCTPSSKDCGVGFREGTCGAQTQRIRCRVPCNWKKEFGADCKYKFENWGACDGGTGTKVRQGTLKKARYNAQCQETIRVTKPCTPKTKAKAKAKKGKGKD
Assay [2] deals with T1, mutant MK recombinant protein MK-K79Q (human, UniProt P21741 23-143, K79Q).
T1 construct: range 23-143; Made from MKver10-pQCxmhIPG, secreted from 293T cells; not shown: linker and tag from vector pQCxmhIPG
T1 sequence (looked up): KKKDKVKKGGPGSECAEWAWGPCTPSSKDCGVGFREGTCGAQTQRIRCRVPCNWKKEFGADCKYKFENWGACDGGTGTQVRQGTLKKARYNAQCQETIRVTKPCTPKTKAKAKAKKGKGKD
Briefly: ELISA, plates coated with wild type or mutant MK, antibody serially diluted from 5 ug/mL. Here is the method: (§1) Hybridomas producing anti-MK antibodies were selected by enzyme-linked immunosorbent assay (ELISA). The assay used the aforementioned recombinant human MK (MKver10) which had been dispensed in a 96-well ELISA plate (nunc) in an amount of 0.5 μg/mL (50 μL/well) and left to stand for 2 hours at room temperature or overnight at […] for adsorption. After removal of the resulting solution, 1% BSA (Nacalai: 01863-35)-5% Sucrose (WAKO)-PBS was added in an amount of 150 μL/well, and the system was allowed to stand for 2 hours at room temperature to block the remaining active groups. After standing of the system, the resulting solution was removed, and the hybridoma culture supernatant (50 μL/well) was dispensed as a primary antibody, whereafter the system was allowed to stand for 1 hour. After the plate was washed with 0.05% Tween 20-PBS, HRP-labeled goat anti-mouse IgG (MBL: 330) diluted 1:10000 was added as a secondary antibody in an amount of 50 μL/well, and the system was allowed to stand for 1 hour at room temperature. After the plate was washed with 0.05% Tween 20-PBS, a color developing solution (5 mM sodium citrate, 0.8 mM 3,3′,5,5′-tetramethylbenzidine-2HCl, 10% N,N-dimethylformamide, 0.625% polyethylene glycol 4000, 5 mM citric acid monohydrate, 5 mM H₂O₂) was added in an amount of 50 μL/well, and the system was allowed to stand for 20 minutes at room temperature to develop a color. 1M phosphoric acid was added in an amount of 50 μL/well to terminate color development, and then the absorbance at 450 nm was measured using a plate reader (Thermo Fisher Scientific).
(§2) The reactivities of the resulting antibodies with the mutant MKs were confirmed by the same enzyme-linked immunosorbent assay (ELISA) as described above. The assays used plates having wild type human MK (MKver10) or the above-mentioned mutant MK (MK-W69A, MK-K79Q, MK-R81Q and MK-K102Q) adsorbed thereto. The anti-MK antibody at a maximum concentration of 5 μg/mL was serially diluted with PBS, and used as a primary antibody. As examples of the antibodies recognizing the N-terminal side or the C-terminal side of midkine, but showing no neutralizing activity, BF106 and FB74 were also evaluated similarly.
(ELISA stands for enzyme-linked immunosorbent assay.)

Assay [3] addresses T2, mutant MK recombinant protein MK-K102Q (human, UniProt P21741 23-143, K102Q).
T2 construct: range 23-143; Made from MKver10-pQCxmhIPG, secreted from 293T cells; not shown: linker and tag from vector pQCxmhIPG
T2 sequence (looked up): T1 sequence (looked up) with Q79K, K102Q
The description is as above. Here is the method: as §1, §2

In assay [4] the target is T3, mutant MK recombinant protein MK-R81Q (human, UniProt P21741 23-143, R81Q).
T3 construct: range 23-143; Made from MKver10-pQCxmhIPG, secreted from 293T cells; not shown: linker and tag from vector pQCxmhIPG
T3 sequence (looked up): T1 sequence (looked up) with Q79K, R81Q
The description is as above. Here is the method:
as §1, §2

In assay [5] the target is T4, mutant MK recombinant protein MK-W69A (human, UniProt P21741 23-143, W69A).
T4 construct: range 23-143; Made from MKver10-pQCxmhIPG, secreted from 293T cells; not shown: linker and tag from vector pQCxmhIPG
T4 sequence (looked up): T1 sequence (looked up) with W69A, Q79K
The description is as above. Here is the method: as §1, §2

Assay [6] concerns the target AP-MK, recombinant protein having alkaline phosphatase (AP) fused to the N-terminal of aa23-121 of MK (human) (UniProt P21741). Put plainly: AP-MK binding inhibition assay on TNB1 cells; AP-MK 0.6 U/ml, antibody 90 ug/mL.
In assay [7] the target is T5, full length purified peptide of pleiotrophin (PEPTIDE INSTITUTE, INC.: 4335-v) (UniProt P21246 33-168, limits assumed).
T5 construct: mature; Bought product; also called PTN
T5 sequence (looked up): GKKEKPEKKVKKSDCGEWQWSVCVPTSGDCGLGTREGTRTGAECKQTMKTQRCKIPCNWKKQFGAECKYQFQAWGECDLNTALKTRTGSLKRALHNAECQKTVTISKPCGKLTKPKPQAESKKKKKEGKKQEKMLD
Put plainly: ELISA on full length purified peptide of pleiotrophin.

Numbering of substitutions follows the chain as printed.

B1: hFB54-matu024 affinity-improved antibody (IgG) (antibody, V domains shown)
VH: EVQLVESGGGLVKPGGYLRLSCAASGFTFSSYAMSWVRQAPGKGLDWVATISSGGSYTYYPDSVKGRFTISRDNAKNSLYLQMNSLTDDDTAVYFCARHNYRYGEYYYAMDYWGQGTLVTVSS
VL: ETTVTQSPSSLSASVGDRVTIRCITSIDIDDEMNWYQQKSGKGPKLLISEGNTLRPGVPSRFSSSGYGTDFTLTISSLQPEDFATYYCLQSDNLPYTFGQGTKLEIK
B1: the relative AP activity (% of wells with AP-MK alone) in assay [1] stood at 22.7%.

B2: humanized FB54 antibody hFB54 (FB54-rHa/FB54-rKc) (antibody, human IgG1, V domains shown)
VH: B1 VH with G104D
VL: B1 VL with I27T, S40P
For the molecule B2, the relative AP activity (% of wells with AP-MK alone) in assay [1] was 81.8%.

B3: hFB54-matu072 affinity-improved antibody (IgG) (antibody, V domains shown)
VH: B1 VH with S63N, G104D, Y108H
VL: B1 VL with S12F, R18K, S40P
With B3, the relative AP activity (% of wells with AP-MK alone) in assay [1] was 33%.

B4: hFB54-matu062 affinity-improved antibody (IgG) (antibody, V domains shown)
VH: B1 VH with K76E, S78T, D88N, G104D
VL: B1 VL with S14F, D17G, T20A, S26N, S40P, L89M
For the molecule B4, the relative AP activity (% of wells with AP-MK alone) in assay [1] stood at 28.3%.

B5: hFB54-matu020 affinity-improved antibody (IgG) (antibody, V domains shown)
VH: B1 VH with L18Q, S85N, G104D, Y108H
VL: B1 VL with S40P
For the molecule B5, the relative AP activity (% of wells with AP-MK alone) in assay [1] was determined as 26.8%.

B6: hFB54-matu039 affinity-improved antibody (IgG) (antibody, V domains shown)
VH: B1 VH with Q3R, G66E, G104D, A109G
VL: B1 VL with I24K, S40P, E105G
Consider B6, for which, in assay [1], the relative AP activity (% of wells with AP-MK alone) was 30.1%.

B7: hFB54-matu014 affinity-improved antibody (IgG) (antibody, V domains shown)
VH: B1 VH with A40T, A75V, G104D
VL: B1 VL with S26N, S40P, Q100R
B7: the relative AP activity (% of wells with AP-MK alone) in assay [1] is 25.6%.

B8: hFB54-matu054 affinity-improved antibody (IgG) (antibody, V domains shown)
VH: B1 VH with A75T, S78T, G104D
VL: B1 VL with D30E, S40P
Consider B8, for which the relative AP activity (% of wells with AP-MK alone) in assay [1] amounted to 33.5%.

B9: anti-human midkine mouse monoclonal antibody FB54 (antibody, V domains shown)
VH: EVMLVESGGGLVKPGGSLKLSCAASGFTFSSYAMSWVRQTPEKRLEWVATISSGGSYTYYPDSVKGRFTISRDNAKNTLYLQMSSLRSEDTAMYFCARHNYRYDEYYYAMDYWGQGTSVTVSS
VL: ETTVTQSPTSLSMAIGEKVTIRCITSTDIDDEMNWYQQKPGEPPKLLISEGNTLRPGVPSRFSSSGYGTDFVFTIENMLSEDVADYYCLQSDNLPYTFGGGTKLEIK
notes: Mouse hybridoma IgG; variable genes were amplified with mouse IgG1 CH1 and kappa constant primers; also called mFB54; mouse FB54 antibody
Take B9: the binding result in assay [2] was “binds”; in assay [3], “binds”; in assay [4], “binds”; in assay [5], “binds”; in assay [7], “no binding”. Also, the relative AP activity (% of wells with AP-MK alone) in assay [6] is 29.5%.

B10: mFB54-matu089 affinity-improved antibody (IgG) (antibody, V domains shown)
VH: B9 VH with K13E, A23T, A24V, Q115H
VL: B9 VL with T27I, M78V
Consider B10, for which, in assay [1], the relative AP activity (% of wells with AP-MK alone) was found to be 20%.

B11: mFB54-matu002 affinity-improved antibody (IgG) (antibody, V domains shown)
VH: B9 VH
VL: B9 VL with I24T, T27I, K39M
In the case of B11, in assay [1], the relative AP activity (% of wells with AP-MK alone) turned out to be 18.9%.
